Experimental findings from US20230181714A1 are described below.

For experiment [1], the target named is recombinant EEEV E1 glycoprotein (Eastern equine encephalitis virus). The experiment can be described thus: ELISA, binding reactivity (FIG. 1).
Experiment [2] concerns the target VEEV virus-like particles (VLPs) (Venezuelan equine encephalitis virus). As to the kind of experiment: ELISA, binding reactivity (FIG. 1). Background: In an ELISA, binding on a coated surface is turned into a signal by an enzyme label.

A word on the EC50: it is the concentration needed to bring the measured effect to its halfway point.

Sequence of VEEV virus-like particles (VLPs) (Venezuelan equine encephalitis virus) (P05674 335-757, chain 1 of 2): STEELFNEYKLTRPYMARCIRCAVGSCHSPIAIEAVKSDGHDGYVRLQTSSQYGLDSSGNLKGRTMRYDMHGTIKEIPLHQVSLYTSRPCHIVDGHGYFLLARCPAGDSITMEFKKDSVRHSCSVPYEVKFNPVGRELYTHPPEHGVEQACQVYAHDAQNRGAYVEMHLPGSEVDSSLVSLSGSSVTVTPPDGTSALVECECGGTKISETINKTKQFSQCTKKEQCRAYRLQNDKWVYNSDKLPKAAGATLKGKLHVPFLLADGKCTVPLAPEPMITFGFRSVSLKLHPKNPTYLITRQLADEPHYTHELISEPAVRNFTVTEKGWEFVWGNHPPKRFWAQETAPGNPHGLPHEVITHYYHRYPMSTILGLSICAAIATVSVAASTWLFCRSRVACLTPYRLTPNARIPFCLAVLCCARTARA
Sequence of VEEV virus-like particles (VLPs) (Venezuelan equine encephalitis virus) (P05674 813-1254, chain 2 of 2): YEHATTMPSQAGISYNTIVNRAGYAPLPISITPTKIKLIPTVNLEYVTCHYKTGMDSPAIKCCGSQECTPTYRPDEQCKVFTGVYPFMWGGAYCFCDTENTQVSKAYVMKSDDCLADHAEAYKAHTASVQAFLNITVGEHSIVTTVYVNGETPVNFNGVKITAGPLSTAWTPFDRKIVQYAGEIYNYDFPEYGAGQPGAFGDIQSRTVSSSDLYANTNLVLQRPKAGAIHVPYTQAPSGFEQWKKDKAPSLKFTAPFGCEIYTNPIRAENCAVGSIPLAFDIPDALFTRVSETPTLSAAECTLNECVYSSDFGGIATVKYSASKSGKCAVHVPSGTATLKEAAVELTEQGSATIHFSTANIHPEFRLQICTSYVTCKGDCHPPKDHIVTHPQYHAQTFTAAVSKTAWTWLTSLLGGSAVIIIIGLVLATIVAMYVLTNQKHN

B1: VEE-52B (antibody, V domains shown)
VH: QVHLLQSGAEVKKPGASVKVSCKSSGHTFASHGISWVRQAPGQGLEWMGWISVYNGNTNYAQKFQGRVIMTTDTPTSTAYMELRSLRSDDTAVYYCAKDIPSASYTMDVWGEGTTVTV
VL: QSALTQPRSVSGSPGQSVTISCTGTSSDIGRYDYVSWYHQHPGKAPKLMIYDVTKRPSGVPDRFSGSKSGNTASLTISGLHADDEADYYCCSYAGSFYVFGTGTKVTVL
As to B1, the EC50 in experiment [1] and in experiment [2] was under 0.02 µg/mL throughout.

B2: VEE-81 (antibody, V domains shown)
VH: QVQLVQSGAEVKKPGASVKVSCKASGYTFTTYYIHWVRQAPGRGLEWMGIINSSGYNTYYAQKFQGRVTMTRDTSTSTVDMELSSLRSEDTAVYYCATSITTRAFDLWGQGTLVTVSS
VL: EIVLTQSPGTLSLSPGERVTLSCRASQSVSSIYLAWYQQRPGQAPRLLIYGASSRATGIPDRFSGSGSGTDFTLTIRRLEPEDFAVYYCQQYGSSPYTFGQGTKLEIK
For B2, the EC50 in experiment [1] and in experiment [2] was under 0.02 µg/mL in each case.
